# Laboratory results as given in patent US20200199241A1 (Chugai, published 2020).
# T1: human FcγRIIa(R) (human, UniProt P12318 36-217)
# T1 construct: also called FcgRIIaR; hFcgRIIa(R)
# T1 chain: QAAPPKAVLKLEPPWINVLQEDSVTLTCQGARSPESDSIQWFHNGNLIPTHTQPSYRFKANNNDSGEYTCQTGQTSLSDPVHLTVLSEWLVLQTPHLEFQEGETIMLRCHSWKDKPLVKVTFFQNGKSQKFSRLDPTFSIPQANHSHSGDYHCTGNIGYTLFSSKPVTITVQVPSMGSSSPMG
# T2: human FcγRIIa(H) (human, UniProt P12318 36-217)
# T2 construct: also called FcgRIIaH; hFcgRIIa(H)
# T2 sequence: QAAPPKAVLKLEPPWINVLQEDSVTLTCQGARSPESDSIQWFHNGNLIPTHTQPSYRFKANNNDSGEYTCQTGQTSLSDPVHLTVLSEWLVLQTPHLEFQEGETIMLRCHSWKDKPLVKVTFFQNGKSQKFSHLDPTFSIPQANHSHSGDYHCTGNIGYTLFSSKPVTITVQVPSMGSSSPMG
# T3: human FcγRIIb (human, UniProt P31994 43-217, limits assumed)
# T3 construct: also called FcgRIIb; hFcgRIIb
# T3 sequence: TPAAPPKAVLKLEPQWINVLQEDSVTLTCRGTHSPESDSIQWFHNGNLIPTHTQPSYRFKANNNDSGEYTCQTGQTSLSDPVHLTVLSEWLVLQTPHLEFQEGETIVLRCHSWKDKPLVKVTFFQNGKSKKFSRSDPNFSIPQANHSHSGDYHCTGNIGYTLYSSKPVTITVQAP
# How the values were obtained:
# Assay in all cases: SPR, captured antibody;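 further: antibody captured on a sensor chip, Fcγ receptor flowed over at 25 °C, receptor binding normalized to the captured antibody amount and expressed relative to the reference antibody ×100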
# [1] = target: T4, human FcγRIa (human, UniProt P12314 16-292, limits assumed)
# T4 construct: also called FcgRIa; hFcgRIa
# Protocol: (§1) Interaction between each modified antibody and Fcγ receptor prepared in the manner described above was analyzed using the BIACORE™ T100 surface plasmon resonance system (GE Healthcare), BIACORE™ T200 surface plasmon resonance system (GE Healthcare), BIACORE™ A100 surface plasmon resonance system or BIACORE™ 4000 surface plasmon resonance system. HBS-EP+ (GE Healthcare) was used for the running buffer, and measurements were carried out at 25° C. The chips used were chips in which antigen peptides, Protein A (Thermo Scientific), Protein A/G (Thermo Scientific) or Protein L (ACTIGEN® protein (Alltech or BioVision) were immobilized on the Series S Sensor Chip CMS (GE Healthcare) or Series S Sensor Chip CM4 (GE Healthcare) by amine coupling, or chips in which preliminarily biotinylated antigen peptides were allowed to interact and then immobilized on the Series S Sensor Chip SA (certified) (GE Healthcare). The target antibodies were captured on these sensor chips, Fcγ receptor diluted with the running buffer was allowed to interact, followed by measurement of the amount of bound antibody. The amounts bound were compared between antibodies. However, since the amount of Fcγ receptor bound depends on the amount of captured antibody, the values used for comparison were first corrected by dividing the amount of Fcγ receptor bound by the captured amount of each antibody. Through reaction with 10 mM glycine-HCl at pH 1.5, the sensor chips were regenerated by washing off antibody captured on the sensor chips and used repeatedly.
# (§2) Binding strength was evaluated according to the following method based on the results of analyzing the interaction with each FcγR. […] That value was then further multiplied by 100, and the resulting value was used as an indicator of relative binding activity to each FcγR.
# [2] = target: T1, human FcγRIIa(R)
# Protocol: as §1, §2
# [3] = target: T2, human FcγRIIa(H)
# Protocol: as §1, §2
# [4] = target: T3, human FcγRIIb
# Protocol: as §1, §2
# T4 sequence (P12314 16-292 limits assumed): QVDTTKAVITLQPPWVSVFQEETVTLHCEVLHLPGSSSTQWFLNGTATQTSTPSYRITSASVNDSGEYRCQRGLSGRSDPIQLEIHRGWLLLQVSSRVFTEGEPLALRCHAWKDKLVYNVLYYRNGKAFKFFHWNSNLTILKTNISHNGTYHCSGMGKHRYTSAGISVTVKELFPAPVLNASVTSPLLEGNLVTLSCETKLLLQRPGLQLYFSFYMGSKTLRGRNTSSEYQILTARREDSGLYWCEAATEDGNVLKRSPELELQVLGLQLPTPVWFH
relative binding activity [1],relative binding activity [2],relative binding activity [3],relative binding activity [4],Binder
78 % of GpH7-B3/GpL16-k0,-2 % of GpH7-B3/GpL16-k0,53 % of GpH7-B3/GpL16-k0,-2 % of GpH7-B3/GpL16-k0,"GpH7-B3 D270Y/GpL16-k0 (antibody, human IgG1, B3 variant; copies: 2 + 2) heavy: not shown light: DIVMTQSPLSLPVTPGEPASISCQASESLVHSNRNTYLHWYLQKPGQSPQLLIYKVSNRFSGVPDRFSGSGSGTDFTLKISRVEAEDVGVYYCSQNTHVPPTFGQGTKVEIE"
77 % of GpH7-B3/GpL16-k0,12 % of GpH7-B3/GpL16-k0,59 % of GpH7-B3/GpL16-k0,27 % of GpH7-B3/GpL16-k0,"GpH7-B3 I332K/GpL16-k0 (antibody, human IgG1, B3 variant; copies: 2 + 2) heavy: not shown light: DIVMTQSPLSLPVTPGEPASISCQASESLVHSNRNTYLHWYLQKPGQSPQLLIYKVSNRFSGVPDRFSGSGSGTDFTLKISRVEAEDVGVYYCSQNTHVPPTFGQGTKVEIE"
95 % of GpH7-B3/GpL16-k0,28 % of GpH7-B3/GpL16-k0,70 % of GpH7-B3/GpL16-k0,23 % of GpH7-B3/GpL16-k0,"GpH7-B3 I332R/GpL16-k0 (antibody, human IgG1, B3 variant; copies: 2 + 2) heavy: not shown light: DIVMTQSPLSLPVTPGEPASISCQASESLVHSNRNTYLHWYLQKPGQSPQLLIYKVSNRFSGVPDRFSGSGSGTDFTLKISRVEAEDVGVYYCSQNTHVPPTFGQGTKVEIE"
92 % of GpH7-B3/GpL16-k0,65 % of GpH7-B3/GpL16-k0,6 % of GpH7-B3/GpL16-k0,72 % of GpH7-B3/GpL16-k0,"GpH7-B3 N325F/GpL16-k0 (antibody, human IgG1, B3 variant; copies: 2 + 2) heavy: not shown light: DIVMTQSPLSLPVTPGEPASISCQASESLVHSNRNTYLHWYLQKPGQSPQLLIYKVSNRFSGVPDRFSGSGSGTDFTLKISRVEAEDVGVYYCSQNTHVPPTFGQGTKVEIE"
78 % of GpH7-B3/GpL16-k0,15 % of GpH7-B3/GpL16-k0,8 % of GpH7-B3/GpL16-k0,15 % of GpH7-B3/GpL16-k0,"GpH7-B3 L328P/GpL16-k0 (antibody, human IgG1, B3 variant; copies: 2 + 2) heavy: not shown light: DIVMTQSPLSLPVTPGEPASISCQASESLVHSNRNTYLHWYLQKPGQSPQLLIYKVSNRFSGVPDRFSGSGSGTDFTLKISRVEAEDVGVYYCSQNTHVPPTFGQGTKVEIE"
56 % of GpH7-B3/GpL16-k0,0 % of GpH7-B3/GpL16-k0,1 % of GpH7-B3/GpL16-k0,0 % of GpH7-B3/GpL16-k0,"GpH7-B3 N325R/GpL16-k0 (antibody, human IgG1, B3 variant; copies: 2 + 2) heavy: not shown light: DIVMTQSPLSLPVTPGEPASISCQASESLVHSNRNTYLHWYLQKPGQSPQLLIYKVSNRFSGVPDRFSGSGSGTDFTLKISRVEAEDVGVYYCSQNTHVPPTFGQGTKVEIE"
95 % of GpH7-B3/GpL16-k0,76 % of GpH7-B3/GpL16-k0,47 % of GpH7-B3/GpL16-k0,82 % of GpH7-B3/GpL16-k0,"GpH7-B3 L328H/GpL16-k0 (antibody, human IgG1, B3 variant; copies: 2 + 2) heavy: not shown light: DIVMTQSPLSLPVTPGEPASISCQASESLVHSNRNTYLHWYLQKPGQSPQLLIYKVSNRFSGVPDRFSGSGSGTDFTLKISRVEAEDVGVYYCSQNTHVPPTFGQGTKVEIE"
26 % of GpH7-B3/GpL16-k0,-13 % of GpH7-B3/GpL16-k0,-1 % of GpH7-B3/GpL16-k0,-3 % of GpH7-B3/GpL16-k0,"GpH7-B3 L328R/GpL16-k0 (antibody, human IgG1, B3 variant; copies: 2 + 2) heavy: not shown light: DIVMTQSPLSLPVTPGEPASISCQASESLVHSNRNTYLHWYLQKPGQSPQLLIYKVSNRFSGVPDRFSGSGSGTDFTLKISRVEAEDVGVYYCSQNTHVPPTFGQGTKVEIE"
50 % of GpH7-B3/GpL16-k0,2 % of GpH7-B3/GpL16-k0,1 % of GpH7-B3/GpL16-k0,3 % of GpH7-B3/GpL16-k0,"GpH7-B3 N325P/GpL16-k0 (antibody, human IgG1, B3 variant; copies: 2 + 2) heavy: not shown light: DIVMTQSPLSLPVTPGEPASISCQASESLVHSNRNTYLHWYLQKPGQSPQLLIYKVSNRFSGVPDRFSGSGSGTDFTLKISRVEAEDVGVYYCSQNTHVPPTFGQGTKVEIE"
92 % of GpH7-B3/GpL16-k0,66 % of GpH7-B3/GpL16-k0,52 % of GpH7-B3/GpL16-k0,62 % of GpH7-B3/GpL16-k0,"GpH7-B3 L328G/GpL16-k0 (antibody, human IgG1, B3 variant; copies: 2 + 2) heavy: not shown light: DIVMTQSPLSLPVTPGEPASISCQASESLVHSNRNTYLHWYLQKPGQSPQLLIYKVSNRFSGVPDRFSGSGSGTDFTLKISRVEAEDVGVYYCSQNTHVPPTFGQGTKVEIE"
55 % of GpH7-B3/GpL16-k0,0 % of GpH7-B3/GpL16-k0,0 % of GpH7-B3/GpL16-k0,-1 % of GpH7-B3/GpL16-k0,"GpH7-B3 N325K/GpL16-k0 (antibody, human IgG1, B3 variant; copies: 2 + 2) heavy: not shown light: DIVMTQSPLSLPVTPGEPASISCQASESLVHSNRNTYLHWYLQKPGQSPQLLIYKVSNRFSGVPDRFSGSGSGTDFTLKISRVEAEDVGVYYCSQNTHVPPTFGQGTKVEIE"
